Reference: patent publication US20070015228A1

Experiments:
human CD20 (human) [1] = target: human CD20 (human) (UniProt P11836); test: Scatchard analysis, iodinated RITUXAN with unlabeled RITUXAN on CHO clone 2H3 cells in suspension (n=3)
human CD20 (human) [2] = target: human CD20 (human) (UniProt P11836); test: cell ELISA on CD20-transfected CHO clone 1H6, suspension format, 300,000 cells/well
human CD20 (human) [3] = target: human CD20 (human) (UniProt P11836); test: cell ELISA on CD20-transfected CHO clone 2H3, suspension format, 300,000 cells/well
human CD20 (human) [4] = target: human CD20 (human) (UniProt P11836); test: Scatchard analysis, iodinated RITUXAN with unlabeled RITUXAN on adherent CHO clone 6D7 cells expressing human CD20 (n=3)
human CD20 (human) [5] = target: human CD20 (human) (UniProt P11836); test: Scatchard analysis, iodinated RITUXAN with unlabeled RITUXAN on adherent CHO clone 4H10 cells expressing human CD20 (n=3)
human CD20 (human) [6] = target: human CD20 (human) (UniProt P11836); test: cell ELISA on CD20-transfected CHO clone C12M, suspension format, 300,000 cells/well
human CD20 (human) [7] = target: human CD20 (human) (UniProt P11836); test: Scatchard analysis, iodinated RITUXAN with unlabeled RITUXAN on WIL2 cells in suspension (n=3)
human CD20 (human) [8] = target: human CD20 (human) (UniProt P11836); test: Scatchard analysis, iodinated RITUXAN with unlabeled RITUXAN on adherent CHO clone C12M cells expressing human CD20 (n=3)

Chain of human CD20 (human) (P11836 whole entry): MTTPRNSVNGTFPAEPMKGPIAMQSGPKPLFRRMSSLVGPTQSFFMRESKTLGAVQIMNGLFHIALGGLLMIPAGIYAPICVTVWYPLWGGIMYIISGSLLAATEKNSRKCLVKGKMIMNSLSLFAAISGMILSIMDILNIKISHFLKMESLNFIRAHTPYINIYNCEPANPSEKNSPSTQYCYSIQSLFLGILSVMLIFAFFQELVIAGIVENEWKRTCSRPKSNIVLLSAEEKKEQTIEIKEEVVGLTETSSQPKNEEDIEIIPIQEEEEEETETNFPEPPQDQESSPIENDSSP

Kd (human CD20 (human) [1]): 8.57 nM
EC50 (read off the curve) (human CD20 (human) [2]): 0.2 µg/mL
EC50 (read off the curve) (human CD20 (human) [3]): 0.2 µg/mL
Kd (human CD20 (human) [4]): 5.97 nM
Kd (human CD20 (human) [5]): 5.5 nM
EC50 (read off the curve) (human CD20 (human) [6]): 0.2 µg/mL
Kd (human CD20 (human) [7]): 3.91 nM
Kd (human CD20 (human) [8]): 13.7 nM
Substance: RITUXAN® (rituximab) (antibody)
